What is called stoichiometry N is the number of molecules, sites or subunits per partner or assembly.

The results in this text go back to publication PMC8586251, “Cryo-EM structure provides insights into the dimer arrangement of the O-linked β-N-acetylglucosamine transferase OGT” (Nature Communications, 2021).

Data set [1] addresses O-GlcNAc transferase OGT, full length, isoform 3, double mutant (W208A, I211A) (UniProt O15294).
Data set [2] deals with the molecule itself. The data set can be described thus: SEC-MALS; SEC-MALLS; Superdex S200 10/300 GL in 20 mM HEPES 7.5, 200 mM NaCl, room temperature; 100 µl of 3 mg/ml OGT injected, 0.5 ml/min; dimer against monomer. On the technique in general: SEC sorts molecules by how far they enter the pores of the column.

Changes are numbered by the printed parent chain.

With “O-GlcNAc transferase OGT, full length, isoform 3, double mutant (W208A, I211A) (from UniProt O15294-1 1-1046) (enzyme)”, the relative second order rate constant of glycosyl transfer to TAB1 protein (fluorescent OGT activity assay), against wildtype OGT (% lower than wildtype) in data set [1] was 50.

B1: O-GlcNAc transferase OGT, full length, isoform 3, wildtype (construct for SEC-MALLS) (enzyme, UniProt O15294-1 1-1046, looked up)
chain: MASSVGNVADSTEPTKRMLSFQGLAELAHREYQAGDFEAAERHCMQLWRQEPDNTGVLLLLSSIHFQCRRLDRSAHFSTLAIKQNPLLAEAYSNLGNVYKERGQLQEAIEHYRHALRLKPDFIDGYINLAAALVAAGDMEGAVQAYVSALQYNPDLYCVRSDLGNLLKALGRLEEAKACYLKAIETQPNFAVAWSNLGCVFNAQGEIWLAIHHFEKAVTLDPNFLDAYINLGNVLKEARIFDRAVAAYLRALSLSPNHAVVHGNLACVYYEQGLIDLAIDTYRRAIELQPHFPDAYCNLANALKEKGSVAEAEDCYNTALRLCPTHADSLNNLANIKREQGNIEEAVRLYRKALEVFPEFAAAHSNLASVLQQQGKLQEALMHYKEAIRISPTFADAYSNMGNTLKEMQDVQGALQCYTRAIQINPAFADAHSNLASIHKDSGNIPEAIASYRTALKLKPDFPDAYCNLAHCLQIVCDWTDYDERMKKLVSIVADQLEKNRLPSVHPHHSMLYPLSHGFRKAIAERHGNLCLDKINVLHKPPYEHPKDLKLSDGRLRVGYVSSDFGNHPTSHLMQSIPGMHNPDKFEVFCYALSPDDGTNFRVKVMAEANHFIDLSQIPCNGKAADRIHQDGIHILVNMNGYTKGARNELFALRPAPIQAMWLGYPGTSGALFMDYIITDQETSPAEVAEQYSEKLAYMPHTFFIGDHANMFPHLKKKAVIDFKSNGHIYDNRIVLNGIDLKAFLDSLPDVKIVKMKCPDGGDNADSSNTALNMPVIPMNTIAEAVIEMINRGQIQITINGFSISNGLATTQINNKAATGEEVPRTIIVTTRSQYGLPEDAIVYCNFNQLYKIDPSTLQMWANILKRVPNSVLWLLRFPAVGEPNIQQYAQNMGLPQNRIIFSPVAPKEEHVRRGQLADVCLDTPLCNGHTTGMDVLWAGTPMVTMPGETLASRVAASQLTCLGCLELIAKNRQEYEDIAVKLGTDLEYLKKVRGKVWKQRISSPLFNTKQYTMELERLYLQMWEHYAAGNKPDHMIKPVEVTESA
notes: also called OGT wildtype; source: E. coli BL21-Gold(DE3), purified (HisTrap, Q Sepharose, Superdex 200)
With B1, in data set [2], the “stoichiometry N” value stood at 2.

B2: O-GlcNAc transferase OGT, full length, isoform 3, E215A (enzyme, UniProt O15294-1 1-1046, looked up)
chain: B1 chain with E215A
notes: O-GlcNAc transferase OGT, isoform 3, UniProt O15294-1, full length, site-directed mutant; source: E. coli BL21-Gold(DE3), purified (HisTrap, Q Sepharose, Superdex 200)
For the molecule B2, the “stoichiometry N” value in data set [2] came to 2.

B3: O-GlcNAc transferase OGT, full length, isoform 3, E206A (enzyme, UniProt O15294-1 1-1046, looked up)
chain: B1 chain with E206A
notes: as for B2
Regarding B3, in data set [2], the “stoichiometry N” value was determined as 2.
